Data published in PMC10663500, “High-throughput analysis system of interaction kinetics for data-driven antibody design” (Scientific Reports, 2023).
Numbering of substitutions follows the chain as printed.

B1: toripalimab Fab H.D31A (Fab, V domains shown)
VH: QGQLVQSGAEVKKPGASVKVSCKASGYTFTAYEMHWVRQAPIHGLEWIGVIESETGGTAYNQKFKGRVTITADKSTSTAYMELSSLRSEDTAVYYCAREGITTVATTYYWYFDVWGQGTTVTVSS
VL: DVVMTQSPLSLPVTLGQPASISCRSSQSIVHSNGNTYLEWYLQKPGQSPQLLIYKVSNRFSGVPDRFSGSGSGTDFTLKISRVEAEDVGVYYCFQGSHVPLTFGQGTKLEIK
notes: heavy chain of Sm3 with this change; numbers count from the chain's first residue; as the light chain of Sm3; source: Brevibacillus, culture supernatant (ammonium sulfate precipitate); not shown: 6xHis, C-terminal, kept; 6xHN, C-terminal, kept
B2: toripalimab Fab H.T55Y (Fab, V domains shown)
VH: B1 VH with A31D, T55Y
VL: B1 VL
notes: as for B1
B3: toripalimab Fab H.G56A (Fab, V domains shown)
VH: B1 VH with A31D, G56A
VL: B1 VL
notes: as for B1
B4: toripalimab Fab H.E54Y (Fab, V domains shown)
VH: B1 VH with A31D, E54Y
VL: B1 VL
notes: as for B1
B5: toripalimab Fab H.T55A (Fab, V domains shown)
VH: B1 VH with A31D, T55A
VL: B1 VL
notes: as for B1
B6: toripalimab Fab, wild type (Fab, V domains shown)
VH: B1 VH with A31D
VL: B1 VL
notes: toripalimab Fab heavy chain; toripalimab stands in PDB 6JBT; toripalimab Fab light chain; also called WT; source: Brevibacillus, culture supernatant (ammonium sulfate precipitate); not shown: 6xHis, C-terminal, kept; 6xHN, C-terminal, kept
B7: toripalimab Fab H.Y108A (Fab, V domains shown)
VH: B1 VH with A31D, Y108A
VL: B1 VL
notes: as for B1
B8: toripalimab Fab H.Y111A (Fab, V domains shown)
VH: B1 VH with A31D, Y111A
VL: B1 VL
notes: as for B1
B9: toripalimab Fab H.T103Y (Fab, V domains shown)
VH: B1 VH with A31D, T103Y
VL: B1 VL
notes: as for B1
B10: toripalimab Fab L.L101W (Fab, V domains shown)
VH: B1 VH with A31D
VL: B1 VL with L101W
notes: as the heavy chain of Sm3; light chain of Sm3 with this change; numbers count from the chain's first residue; source: Brevibacillus, culture supernatant (ammonium sulfate precipitate); not shown: 6xHis, C-terminal, kept; 6xHN, C-terminal, kept
B11: toripalimab Fab H.I101A (Fab, V domains shown)
VH: B1 VH with A31D, I101A
VL: B1 VL
notes: as for B1
B12: toripalimab Fab H.I101Y (Fab, V domains shown)
VH: B1 VH with A31D, I101Y
VL: B1 VL
notes: as for B1
B13: toripalimab Fab H.W110A (Fab, V domains shown)
VH: B1 VH with A31D, W110A
VL: B1 VL
notes: as for B1
B14: toripalimab Fab H.G100Y (Fab, V domains shown)
VH: B1 VH with A31D, G100Y
VL: B1 VL
notes: as for B1
B15: toripalimab Fab L.Q95Y (Fab, V domains shown)
VH: B1 VH with A31D
VL: B1 VL with Q95Y
notes: as for B10
B16: toripalimab Fab H.T102A (Fab, V domains shown)
VH: B1 VH with A31D, T102A
VL: B1 VL
notes: as for B1
B17: toripalimab Fab H.E33Y (Fab, V domains shown)
VH: B1 VH with A31D, E33Y
VL: B1 VL
notes: as for B1
B18: toripalimab Fab H.I51Y (Fab, V domains shown)
VH: B1 VH with A31D, I51Y
VL: B1 VL
notes: as for B1
B19: toripalimab Fab L.H31Y (Fab, V domains shown)
VH: B1 VH with A31D
VL: B1 VL with H31Y
notes: as for B10
B20: toripalimab Fab H.H35A (Fab, V domains shown)
VH: B1 VH with A31D, H35A
VL: B1 VL
notes: as for B1
B21: toripalimab Fab H.H35Y (Fab, V domains shown)
VH: B1 VH with A31D, H35Y
VL: B1 VL
notes: as for B1
B22: toripalimab Fab L.G96A (Fab, V domains shown)
VH: B1 VH with A31D
VL: B1 VL with G96A
notes: as for B10
B23: toripalimab Fab H.T103A (Fab, V domains shown)
VH: B1 VH with A31D, T103A
VL: B1 VL
notes: as for B1
B24: toripalimab Fab H.F112A (Fab, V domains shown)
VH: B1 VH with A31D, F112A
VL: B1 VL
notes: as for B1
B25: toripalimab Fab H.D113Y (Fab, V domains shown)
VH: B1 VH with A31D, D113Y
VL: B1 VL
notes: as for B1
B26: toripalimab Fab H.D113A (Fab, V domains shown)
VH: B1 VH with A31D, D113A
VL: B1 VL
notes: as for B1
B27: toripalimab Fab L.Y37A (Fab, V domains shown)
VH: B1 VH with A31D
VL: B1 VL with Y37A
notes: as for B10
B28: toripalimab Fab H.E52A (Fab, V domains shown)
VH: B1 VH with A31D, E52A
VL: B1 VL
notes: as for B1
B29: toripalimab Fab L.S97Y (Fab, V domains shown)
VH: B1 VH with A31D
VL: B1 VL with S97Y
notes: as for B10
B30: toripalimab Fab L.H31A (Fab, V domains shown)
VH: B1 VH with A31D
VL: B1 VL with H31A
notes: as for B10
B31: toripalimab Fab L.L101H (Fab, V domains shown)
VH: B1 VH with A31D
VL: B1 VL with L101H
notes: as for B10
B32: toripalimab Fab L.E39A (Fab, V domains shown)
VH: B1 VH with A31D
VL: B1 VL with E39A
notes: as for B10
B33: toripalimab Fab H.T102Y (Fab, V domains shown)
VH: B1 VH with A31D, T102Y
VL: B1 VL
notes: as for B1

Biological target: T1, mouse programmed cell death protein 1 Fc fusion protein (mPD-1-Fc), mPD-1 C60S (aa 25-167) (Mus musculus, UniProt Q02242, stabilised)
T1 construct: not cleaved; source: Expi293F, purified (Protein A, SEC; dimeric fraction); not shown: Fc (human), C-terminal, kept
Test: SPR; Carterra LSA; Fab from the ammonium sulfate precipitate of the culture supernatant immobilised on a NiHC200M chip; hPD-1 (1-1024 nM) or mPD-1-Fc (4-1024 nM) as analyte, fourfold dilution series, no regeneration; HBS-EP pH 7.4, 25 °C; medians over the spots of a construct, KD = koff/kon
Settings: one partner purified
Method in brief: (§1)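 Fabs, ammonium sulfate-precipitated from Brevibacillus supernatants and redissolved in HBS-EP, were captured in duplicate on a NiHC200M chip on a Carterra LSA at 25 °C. Fourfold series of human PD-1 (1–1024 nM) or mouse PD-1-Fc (4–1024 nM) were run without regeneration, with association for 10 min and dissociation for 5 min. Rates were fitted with the kdka model, choosing the better of slow- or fast-dissociation settings, and unconfirmed binders were given kon 10^3 […] and koff 10^−2 s^−1. The dissociation constant KD is koff/kon based on per-construct medians.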

Binder | Kd [nM] | koff [s⁻¹] | kon [M⁻¹ s⁻¹]
B1 | 204 | 0.00913 | 44700
B2 | 35.8 | 0.00179 | 49900
B3 | 154 | 0.00466 | 30200
B4 | 80.3 | 0.00402 | 50100
B5 | 411 | 0.0151 | 36800

Biological target: T2, human programmed cell death protein 1 (hPD-1) C93S (aa 24-167) (Homo sapiens, UniProt Q15116, C93S)
T2 construct: made as a fusion with a TEV site and human Fc; the Fc was cut off with TEV protease; source: Expi293F, purified (Protein A, TEV cleavage of Fc, SEC; monomer fractions); not shown: Fc (human), C-terminal, cleaved
T2 sequence (Q15116 24-167 C93S): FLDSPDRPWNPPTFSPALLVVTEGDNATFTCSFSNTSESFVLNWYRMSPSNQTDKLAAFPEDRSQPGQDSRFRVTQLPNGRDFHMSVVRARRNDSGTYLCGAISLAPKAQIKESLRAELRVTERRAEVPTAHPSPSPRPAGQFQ
Test: as above
Settings: one partner purified
Method in brief: as §1

Binder | Kd [nM] | koff [s⁻¹] | kon [M⁻¹ s⁻¹]
B6 | < 0.841 | < 1e-05 | 11900
B7 | 48.6 | 0.000235 | 4840
B8 | 1610 | 0.0601 | 37200
B9 | < 2.91 | < 1e-05 | 3430
B10 | 237 | 0.0322 | 136000
B11 | 107 | 0.000592 | 5550
B12 | 54.5 | 0.000227 | 4170
B13 | < 2.43 | < 1e-05 | 4120
B1 | < 0.861 | < 1e-05 | 11600
B14 | 107 | 0.00166 | 15500
B15 | 55 | 0.000734 | 13300
B2 | < 0.354 | < 1e-05 | 28300
B16 | 65.9 | 0.000404 | 6130
B17 | 430 | 0.00629 | 14600
B18 | 8.01 | 0.000297 | 37000
B19 | 17.2 | 0.000663 | 38600
B20 | 2470 | 0.00804 | 3250

Binder | Kd [nM] | koff [s⁻¹] | kon [M⁻¹ s⁻¹]
B21 | 294 | 0.00276 | 9390
B22 | 372 | 0.00516 | 13900
B23 | < 1.2 | < 1e-05 | 8350
B24 | 6.2 | 2.72e-05 | 4390
B25 | < 1.6 | < 1e-05 | 6230
B26 | < 1.79 | < 1e-05 | 5600
B27 | 237 | 0.00432 | 18300
B28 | 40.1 | 0.000844 | 21100
B29 | 63.3 | 0.000845 | 13300
B30 | 57.3 | 0.000589 | 10300
B31 | 60.6 | 0.00111 | 18400
B3 | < 1.46 | < 1e-05 | 6870
B4 | < 0.326 | < 1e-05 | 30700
B5 | 5.76 | 4.01e-05 | 6960
B32 | 88.4 | 0.000203 | 2290
B33 | 200 | 0.00148 | 7420
